Numbering of substitutions follows the chain as printed.
Assays:
OCT1 Phe244Ala variant [1] = molecular target: T1, OCT1 Phe244Ala variant (Homo sapiens, UniProt O15245, F244A); conditions: cited from earlier work
T1 sequence (O15245 1-554 F244A): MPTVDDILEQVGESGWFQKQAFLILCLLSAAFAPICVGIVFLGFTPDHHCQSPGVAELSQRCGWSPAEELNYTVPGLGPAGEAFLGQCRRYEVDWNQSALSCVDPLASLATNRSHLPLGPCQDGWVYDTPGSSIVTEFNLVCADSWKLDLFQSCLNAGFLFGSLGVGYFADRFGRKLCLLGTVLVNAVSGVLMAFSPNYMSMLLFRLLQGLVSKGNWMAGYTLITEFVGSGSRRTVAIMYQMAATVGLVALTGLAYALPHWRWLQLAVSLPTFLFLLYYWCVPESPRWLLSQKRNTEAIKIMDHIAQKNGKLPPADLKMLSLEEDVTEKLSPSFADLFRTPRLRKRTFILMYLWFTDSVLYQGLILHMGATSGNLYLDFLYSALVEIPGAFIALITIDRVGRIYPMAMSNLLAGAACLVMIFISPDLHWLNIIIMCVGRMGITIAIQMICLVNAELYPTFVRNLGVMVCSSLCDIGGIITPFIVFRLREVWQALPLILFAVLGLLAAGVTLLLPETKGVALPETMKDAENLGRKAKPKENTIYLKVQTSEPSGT

OCT1 WT [2] = molecular target: T2, OCT1 WT (Homo sapiens, UniProt O15245); test: Uptake screening (transport ratio over empty vector), HEK293 cells overexpressing OCT1 WT; type: cell-based; set-up: expressed in transfected cells; conditions: uptake ratio of OCT1 WT-overexpressing HEK293 cells over empty vector;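 also: intracellular substrate levels quantified by HPLC–tandem mass spectrometry after uptake in HBSS+ buffer at 37 °C, stable Flp-In HEK293 lines, fold change versus empty vector–transfected cells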
T2 sequence (O15245 1-554): T1 sequence (O15245 1-554 F244A) with A244F
Description: (§1) All experiments were carried out using transporter-overexpressing HEK293 cells. […] Cells were cultivated in Dulbecco’s Modified Eagle’s medium supplemented with 10% fetal calf serum, 100 U/ml penicillin, and 100 μg/ml streptomycin. Cells were passaged twice a week and kept in culture for no longer than 30 passages.
(§2) For uptake studies, 300,000 HEK293 cells were plated in each well of 24-well plates precoated with poly-D-lysine 48 prior to the experiment. On the day of the experiment, cells were washed once with prewarmed to 37 °C HBSS+ (Hank’s balanced salt solution supplemented with 10 mM Hepes, both Sigma-Aldrich). […] Uptake was stopped by adding ice-cold HBSS+ and cells were washed twice with ice-cold buffer before cell lysis was done using 80% acetonitrile containing an appropriate internal standard for eventual mass spectrometry. Relative quantification was done by comparison of transporter-overexpressing cells to empty vector–transfected controls. For uptake kinetic experiments, cells were incubated with increasing concentrations of substrate dissolved in HBSS+. Absolute quantification was done later by comparison to a standard curve in lysis buffer with known concentration.
(§3) Intracellular drug concentrations were detected and quantified by HPLC coupled to mass spectrometry. […] Substance-specific conditions were used to adjust the retention times of the analytes.
(§4) Transport ratios were determined as relative fold-increase of the uptake in transporter-overexpressing cells over empty vector–transfected control cells. For transport kinetic experiments, absolute substrate quantification was done by signal comparison to a standard curve with known concentrations. Net uptake was then determined by subtracting the uptake into empty vector–transfected cells from transporter-overexpressing cells. […] Vmax defines the maximum transport velocity, Km refers to the substrate concentration required to reach half vmax. The intrinsic clearance Clint is the ratio of vmax over Km.

OCT1 Phe244Ala variant [3] = molecular target: T1, OCT1 Phe244Ala variant; test: Uptake screening (transport ratio over empty vector), HEK293 cells overexpressing OCT1 Phe244Ala variant; type: cell-based; set-up: expressed in transfected cells;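 also: stably transfected HEK293 cells, intracellular substrate quantified by HPLC-tandem mass spectrometry in cell lysates, uptake in HBSS+ buffer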
Description: as §1, §2, §3, §4

OCT1 WT [4] = molecular target: T2, OCT1 WT; test: Concentration-dependent uptake kinetics, HEK293 cells overexpressing OCT1 WT
Description: as §1, §2, §3, §4

OCT1 Phe244Ala variant [5] = molecular target: T1, OCT1 Phe244Ala variant; test: Concentration-dependent uptake kinetics, HEK293 cells overexpressing OCT1 Phe244Ala;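 also: cells exposed to rising substrate concentrations in buffer, intracellular drug measured by HPLC-tandem mass spectrometry, quantified against a standard curve, uptake referenced to empty vector-transfected HEK293 controls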
Description: as §1, §2, §3, §4

[6] = substrate: CC(=O)OC(C)C[N+](C)(C)C; test: cells, lysate or membranes; conditions: other: OCT1 WT, HEK293, 2 min incubation, net uptake, mean ± SD of three experiments
[7] = substrate: CC(C)(C)NCC(O)COc1cccc2c1CCC(=O)N2; test: cells, lysate or membranes; conditions: other: OCT1 WT, HEK293, 2 min incubation, net uptake, mean ± SD of three experiments
[8] = substrate: CC(C)[N+](C)(CCOC(=O)C1c2ccccc2Oc2ccccc21)C(C)C; test: cells, lysate or membranes; conditions: other: OCT1 WT, HEK293, 2 min incubation, net uptake, mean ± SD of three experiments
[9] = substrate: CC(CCc1ccc(O)cc1)NCCc1ccc(O)c(O)c1; test: cells, lysate or membranes; conditions: other: OCT1 WT, HEK293, 2 min incubation, net uptake, mean ± SD of three experiments
Description: as §1, §2, §3, §4

[10] = substrate: CCN1CCCC1CNC(=O)c1cc(S(N)(=O)=O)ccc1OC; test: cells, lysate or membranes; conditions: other: OCT1 WT, HEK293, 2 min incubation, net uptake, mean ± SD of three experiments
[11] = substrate: CN(C)CCc1c[nH]c2ccc(C[C@H]3COC(=O)N3)cc12; test: cells, lysate or membranes; conditions: other: OCT1 WT, HEK293, 2 min incubation, net uptake, mean ± SD of three experiments
[12] = substrate: CN1CCN(CC(=O)N2c3ccccc3C(=O)Nc3cccnc32)CC1; test: cells, lysate or membranes; conditions: other: OCT1 WT, HEK293, 2 min incubation, net uptake, mean ± SD of three experiments
[13] = substrate: COc1cc(CCN)cc(OC)c1OC; test: cells, lysate or membranes; conditions: other: OCT1 WT, HEK293, 2 min incubation, net uptake, mean ± SD of three experiments
[14] = substrate: Cc1ncc(C[n+]2csc(CCO)c2C)c(N)n1; test: cells, lysate or membranes; conditions: other: OCT1 WT, HEK293, 2 min incubation, net uptake, mean ± SD of three experiments
[15] = substrate: NC(N)=Nc1nc(CSCCC(N)=NS(N)(=O)=O)cs1; test: cells, lysate or membranes; conditions: other: OCT1 WT, HEK293, 2 min incubation, net uptake, mean ± SD of three experiments

CN(C)C(=N)N=C(N)N [Metformin]
Consequence of the Phe244Ala substitution on transport (OCT1 Phe244Ala variant [1]): complete loss of transport activity | Mean_transport_ratio_WT (OCT1 WT [2]): 6.891 | Transport activity of Phe244Ala in % of WT activity (OCT1 Phe244Ala variant [3]; 2.5 μM substrate, 2 min, Phe244Ala uptake relative to WT): ~10% | relative_Phe244Ala_uptake_in% (OCT1 Phe244Ala variant [3]; Phe244Ala uptake relative to OCT1 WT): 14.754% | Mean_transport_ratio_Phe244Ala (OCT1 Phe244Ala variant [3]; uptake ratio of OCT1 Phe244Ala-overexpressing HEK293 cells over empty vector): 1.869 | vmax (OCT1 WT [4]; OCT1 WT, HEK293, 2 min incubation, net uptake): 10,813 ± 2176 pmol × mg protein^−1 × min^−1 | Clint (OCT1 WT [4]; OCT1 WT, ratio of vmax over Km): 3.71 ± 2.82 ml × g Protein^−1 × min^−1 | Km at 2 min (OCT1 WT [4]; human, HEK293 cells overexpressing OCT1 WT): 2910 ± 1630 µM | vmax (OCT1 Phe244Ala variant [5]; OCT1 Phe244Ala, HEK293, 2 min incubation, net uptake): 4361 ± 1497 pmol × mg protein^−1 × min^−1 | Clint (OCT1 Phe244Ala variant [5]; OCT1 Phe244Ala, ratio of vmax over Km): 1.54 ± 2.02 ml × g Protein^−1 × min^−1 | Km at 2 min (OCT1 Phe244Ala variant [5]; human, HEK293 cells overexpressing OCT1 Phe244Ala): 2830 ± 2730 µM | Maximum transport capacity (vmax), Phe244Ala compared to WT (OCT1 Phe244Ala variant [5]; uptake kinetics, in words): reduced transport capacity

B1: OCT1 WT (Homo sapiens) (protein)
chain: T1 sequence (O15245 1-554 F244A) with A244F
Km [6]: 413 ± 314 µM | Vmax [6]: 0.00584 µmol/min/mg | Vmax/Km [6]: 14.1 µL/min/mg | Km [7]: 449 ± 438 µM | Vmax [7]: 0.000453 µmol/min/mg | Vmax/Km [7]: 1.01 µL/min/mg | Km [8]: 1.26 ± 1.12 µM | Vmax [8]: 0.000271 µmol/min/mg | Vmax/Km [8]: 224 µL/min/mg | Km [9]: 40.1 ± 57.7 µM | Vmax [9]: 0.000122 µmol/min/mg | Vmax/Km [9]: 3.03 µL/min/mg | Km [10]: 89.2 ± 85.2 µM | Km [11]: 98.5 ± 87.8 µM | Vmax [11]: 0.00213 µmol/min/mg | Vmax/Km [11]: 21.6 µL/min/mg | Km [12]: 69.3 ± 103 µM | Vmax [12]: 3e-05 µmol/min/mg | Vmax/Km [12]: 0.43 µL/min/mg | Km [13]: 38.2 ± 14.3 µM | Vmax [13]: 0.000185 µmol/min/mg | Vmax/Km [13]: 4.84 µL/min/mg | Km [14]: 1161 ± 1029 µM | Vmax [14]: 0.00872 µmol/min/mg | Vmax/Km [14]: 7.51 µL/min/mg | Km [15]: 64.7 ± 50.2 µM | Vmax [15]: 0.00296 µmol/min/mg | Vmax/Km [15]: 45.8 µL/min/mg

Source: paper PMC11602988 (The Journal of Biological Chemistry, 2024)
